Reference: patent US20120308513A1 (DENDREON, published 2012)

Experiments:
Assay in all cases: cell-based or functional assay
HLA-DRB1*0101 = HLA-DRB1*0101 (human)
HLA-DRB1*0102 = HLA-DRB1*0102 (human)
HLA-DRB1*0103 = HLA-DRB1*0103 (human)
HLA-DRB1*1503 = HLA-DRB1*1503 (human)
HLA-DRB1*160201 = HLA-DRB1*160201 (human)
HLA-DRB1*0301 = HLA-DRB1*0301 (human)
HLA-DRB1*0302 = HLA-DRB1*0302 (human)
HLA-DRB1*0401 = HLA-DRB1*0401 (human)
HLA-DRB1*0402 = HLA-DRB1*0402 (human)
HLA-DRB1*040301 = HLA-DRB1*040301 (human)
HLA-DRB1*040501 = HLA-DRB1*040501 (human)
HLA-DRB1*1101 = HLA-DRB1*1101 (human)
HLA-DRB1*1102 = HLA-DRB1*1102 (human)
HLA-DRB1*1103 = HLA-DRB1*1103 (human)
HLA-DRB1*1104 = HLA-DRB1*1104 (human)
HLA-DRB1*110401 = HLA-DRB1*110401 (human)
HLA-DRB1*1201 = HLA-DRB1*1201 (human)
HLA-DRB1*1301 = HLA-DRB1*1301 (human)
HLA-DRB1*1302 = HLA-DRB1*1302 (human)
HLA-DRB1*1401 = HLA-DRB1*1401 (human)
HLA-DRB1*1402 = HLA-DRB1*1402 (human)
HLA-DRB1*0701 = HLA-DRB1*0701 (human)
HLA-DRB1*080101 = HLA-DRB1*080101 (human)
HLA-DRB1*080201 = HLA-DRB1*080201 (human)
HLA-DRB1*0901 = HLA-DRB1*0901 (human)

IFNγ production by T cell clone HER500.23c21, HERp270-284 at 1 µg/mL presented by the homozygous EBV-LcL line (ELISA) (HLA-DRB1*0101): > 4000 pg/mL
IFNγ production by T cell clone HER500.23c21, HERp270-284 at 1 µg/mL presented by the homozygous EBV-LcL line (ELISA) (HLA-DRB1*0102): > 4000 pg/mL
IFNγ production by T cell clone HER500.23c21, HERp270-284 at 1 µg/mL presented by the homozygous EBV-LcL line (ELISA) (HLA-DRB1*0103): > 4000 pg/mL
IFNγ production by T cell clone HER500.23c21, HERp270-284 at 1 µg/mL presented by the homozygous EBV-LcL line (ELISA) (HLA-DRB1*1503): > 4000 pg/mL
IFNγ production by T cell clone HER500.23c21, HERp270-284 at 1 µg/mL presented by the homozygous EBV-LcL line (ELISA) (HLA-DRB1*160201): > 4000 pg/mL
IFNγ production by T cell clone HER500.23c21, HERp270-284 at 1 µg/mL presented by the homozygous EBV-LcL line (ELISA) (HLA-DRB1*0301): > 4000 pg/mL
IFNγ production by T cell clone HER500.23c21, HERp270-284 at 1 µg/mL presented by the homozygous EBV-LcL line (ELISA) (HLA-DRB1*0302): > 4000 pg/mL
IFNγ production by T cell clone HER500.23c21, HERp270-284 at 1 µg/mL presented by the homozygous EBV-LcL line (ELISA) (HLA-DRB1*0401): > 4000 pg/mL
IFNγ production by T cell clone HER500.23c21, HERp270-284 at 1 µg/mL presented by the homozygous EBV-LcL line (ELISA) (HLA-DRB1*0402): > 4000 pg/mL
IFNγ production by T cell clone HER500.23c21, HERp270-284 at 1 µg/mL presented by the homozygous EBV-LcL line (ELISA) (HLA-DRB1*040301): > 4000 pg/mL
IFNγ production by T cell clone HER500.23c21, HERp270-284 at 1 µg/mL presented by the homozygous EBV-LcL line (ELISA) (HLA-DRB1*040501): > 4000 pg/mL
IFNγ production by T cell clone HER500.23c21, HERp270-284 at 1 µg/mL presented by the homozygous EBV-LcL line (ELISA) (HLA-DRB1*1101): > 4000 pg/mL
IFNγ production by T cell clone HER500.23c21, HERp270-284 at 1 µg/mL presented by the homozygous EBV-LcL line (ELISA) (HLA-DRB1*1102): > 4000 pg/mL
IFNγ production by T cell clone HER500.23c21, HERp270-284 at 1 µg/mL presented by the homozygous EBV-LcL line (ELISA) (HLA-DRB1*1103): > 4000 pg/mL
IFNγ production by T cell clone HER500.23c21, HERp270-284 at 1 µg/mL presented by the homozygous EBV-LcL line (ELISA) (HLA-DRB1*1104): > 4000 pg/mL
IFNγ production by T cell clone HER500.23c21, HERp270-284 at 1 µg/mL presented by the homozygous EBV-LcL line (ELISA) (HLA-DRB1*110401): > 4000 pg/mL
IFNγ production by T cell clone HER500.23c21, HERp270-284 at 1 µg/mL presented by the homozygous EBV-LcL line (ELISA) (HLA-DRB1*1201): > 4000 pg/mL
IFNγ production by T cell clone HER500.23c21, HERp270-284 at 1 µg/mL presented by the homozygous EBV-LcL line (ELISA) (HLA-DRB1*1301): > 4000 pg/mL
IFNγ production by T cell clone HER500.23c21, HERp270-284 at 1 µg/mL presented by the homozygous EBV-LcL line (ELISA) (HLA-DRB1*1302): > 4000 pg/mL
IFNγ production by T cell clone HER500.23c21, HERp270-284 at 1 µg/mL presented by the homozygous EBV-LcL line (ELISA) (HLA-DRB1*1401): > 4000 pg/mL
IFNγ production by T cell clone HER500.23c21, HERp270-284 at 1 µg/mL presented by the homozygous EBV-LcL line (ELISA) (HLA-DRB1*1402): > 4000 pg/mL
IFNγ production by T cell clone HER500.23c21, HERp270-284 at 1 µg/mL presented by the homozygous EBV-LcL line (ELISA) (HLA-DRB1*0701): > 4000 pg/mL
IFNγ production by T cell clone HER500.23c21, HERp270-284 at 1 µg/mL presented by the homozygous EBV-LcL line (ELISA) (HLA-DRB1*080101): > 4000 pg/mL
IFNγ production by T cell clone HER500.23c21, HERp270-284 at 1 µg/mL presented by the homozygous EBV-LcL line (ELISA) (HLA-DRB1*080201): > 4000 pg/mL
IFNγ production by T cell clone HER500.23c21, HERp270-284 at 1 µg/mL presented by the homozygous EBV-LcL line (ELISA) (HLA-DRB1*0901): > 4000 pg/mL
Binder: ALVTYNTDTFESMPN [HER500 peptide #63 (HERp270-284)]
